doi:10.1101/2025.06.13.659598

Biological target: nesprin-2G SR11-13 (spectrin repeats 11-13 of human nesprin-2) (human)
Experiment: co-sedimentation

Sequence of FHOD1 wild-type, full length (Q9Y613 whole entry): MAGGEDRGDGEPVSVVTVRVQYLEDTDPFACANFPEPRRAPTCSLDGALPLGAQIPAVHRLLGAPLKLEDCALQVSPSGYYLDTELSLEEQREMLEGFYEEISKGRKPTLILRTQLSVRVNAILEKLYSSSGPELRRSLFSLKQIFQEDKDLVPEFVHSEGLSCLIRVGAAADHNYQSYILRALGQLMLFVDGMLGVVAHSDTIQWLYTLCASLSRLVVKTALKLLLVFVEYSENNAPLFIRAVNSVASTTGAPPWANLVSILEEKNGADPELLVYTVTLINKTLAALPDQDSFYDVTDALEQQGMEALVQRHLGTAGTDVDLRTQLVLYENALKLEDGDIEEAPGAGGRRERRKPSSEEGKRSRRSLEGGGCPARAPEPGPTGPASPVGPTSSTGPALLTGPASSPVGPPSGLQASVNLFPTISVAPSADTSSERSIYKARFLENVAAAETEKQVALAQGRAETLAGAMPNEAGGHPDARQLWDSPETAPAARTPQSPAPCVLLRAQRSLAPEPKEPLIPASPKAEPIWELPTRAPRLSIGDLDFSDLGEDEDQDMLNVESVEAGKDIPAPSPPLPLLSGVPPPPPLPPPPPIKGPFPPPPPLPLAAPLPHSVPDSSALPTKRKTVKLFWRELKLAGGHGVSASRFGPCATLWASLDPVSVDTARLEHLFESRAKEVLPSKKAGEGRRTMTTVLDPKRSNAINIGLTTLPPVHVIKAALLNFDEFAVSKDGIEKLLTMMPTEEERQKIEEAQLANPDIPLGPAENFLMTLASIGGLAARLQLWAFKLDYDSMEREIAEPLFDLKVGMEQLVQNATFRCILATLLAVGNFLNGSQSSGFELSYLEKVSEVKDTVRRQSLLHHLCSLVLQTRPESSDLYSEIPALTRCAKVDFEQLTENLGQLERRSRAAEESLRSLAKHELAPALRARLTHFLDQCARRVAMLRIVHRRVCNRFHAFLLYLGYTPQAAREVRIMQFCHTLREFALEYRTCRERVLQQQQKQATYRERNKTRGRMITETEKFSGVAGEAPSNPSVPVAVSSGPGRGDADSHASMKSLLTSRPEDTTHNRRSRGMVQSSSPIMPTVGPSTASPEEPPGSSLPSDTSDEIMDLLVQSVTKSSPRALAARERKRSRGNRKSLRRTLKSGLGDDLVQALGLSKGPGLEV

stoichiometry N (scale: FHOD1 WT per SR11-13)	stoichiometry N (scale: FHOD3 WT per SR11-13)	Substance
1.18	–	FHOD1 wild-type, full length (from UniProt Q9Y613 1-1164) (natural protein)
–	1.3	FHOD3 wild-type (from UniProt Q2V2M9 1-1422) (natural protein)
